Results reported in patent US7045617 (MOUNT SINAI SCHOOL OF MEDICINE, dated 2006).
Side-chain parts run from the residue outwards. [ ]: non-standard residue; d: D form. Phe(4-NH2) = Nc1ccc(C[C@H](N)C(=O)O)cc1; Dap = NC[C@H](N)C(=O)O

Columns and labels:
[1] = molecular target: T1, recombinant mouse protein kinase A (catalytic subunit) (mouse, UniProt P05132 2-351); assay: PKA radiometric kinase assay, Dixon plot, adjusted to zero substrate
Description: (§1) Reagents from Calbiochem's Protein Kinase A kit were used to perform the inhibition assays and recombinant mouse PKA (catalytic subunit) was also purchased from Calbiochem (enzyme concentration was established by Bradford analysis). […] These were further diluted into water to produce a range of inhibitor solutions between 51 μM and 507 nM. An 11.25 μL aliquot from each of these solutions was pre-incubated with 7.5 μL of a 1.75 nM PKA enzyme solution (750 ug/uL bovine serum albumin) for 10 minutes at 30° C. after which 12.5 μL of pre-incubation mix was added to 12.5 μL of reaction mix (30 μM cold ATP, 50 μM biotinylated kemptide substrate, 0.04 uCi/μL γP-32 ATP, 80 mM Tris-HCl, 10 mM MgCl_2, pH 7.5) to initiate the enzymatic reaction. […] The columns were placed in scintillation vials and radioactivity was measured using a scintillation counter.

[2] = molecular target: T1, recombinant mouse protein kinase A …; assay: PKA radiometric kinase assay with biotinylated kemptide, Dixon plot, versus ATP
Description: as §1

[3] = molecular target: protein tyrosine kinase Csk (UniProt P41240 1-450, limits assumed); assay: Csk kinase inhibition assay
Sequence of protein tyrosine kinase Csk (P41240 whole entry): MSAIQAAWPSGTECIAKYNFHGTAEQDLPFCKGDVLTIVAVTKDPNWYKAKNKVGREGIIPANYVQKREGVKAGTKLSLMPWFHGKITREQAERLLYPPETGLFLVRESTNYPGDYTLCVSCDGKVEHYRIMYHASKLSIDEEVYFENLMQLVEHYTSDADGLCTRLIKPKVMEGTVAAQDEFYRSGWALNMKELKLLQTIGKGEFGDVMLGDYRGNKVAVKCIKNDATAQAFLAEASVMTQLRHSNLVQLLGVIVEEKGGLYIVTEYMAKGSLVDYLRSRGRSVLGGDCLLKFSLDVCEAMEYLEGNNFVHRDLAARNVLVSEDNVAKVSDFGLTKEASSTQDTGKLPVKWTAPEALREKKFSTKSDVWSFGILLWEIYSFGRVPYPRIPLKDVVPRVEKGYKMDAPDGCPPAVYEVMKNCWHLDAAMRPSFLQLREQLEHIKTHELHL

Binder	Ki [1] [µM]	Ki [2] [µM]	Ki [3] [µM]
Ac-LRRA[Dap]([Ac-ATPγS])LG-OH [kemptide-ATPγS conjugate]	4.6	9.56	
Ac-KKKLPATGD[Phe(4-NH2)]([Ac-ATPγS])MNMSPVGD-OH (also called bisubstrate analog 2) [Compound 2 (peptide-ATP bisubstrate analog; IRS727 peptide linked to ATPγS through an acetyl linker)]			~40
